In PMC9270183 (The Journal of Experimental Medicine, 2022):
Residue numbers refer to the chain shown, from its start.

B1: V046 (antibody, V domains shown)
VH: EVQLVESGGGLVQPGRSLRLSCAASGFTFEDYAMHWVRQAPGKGLEWVSGVSWNSGTIGYADSVKGRFIISRDNAKNSLYLQMNSLRAEDTALYYCANLGPTYYDFSRPTPMDVWGKGTTVTVSS
VL: QSALTQPASVSGSPGQSITISCTGTSSDVGGYNYVSWYQQHPGKAPKLIIYDVSNRPSGVSNRFSGSKSGNTASLTISGLQAEDEADYYCSSYTSSSTWVFGGGTKLTVL
notes: IgG; donor BRA15; source: recombinant monoclonal IgG, produced and purified as previously described
B2: V048 (antibody, V domains shown)
VH: QVQLVQSGAEVKKPGASVKVSCKASGYTFTSYVISWVRQAPGQGLEWMGWISAYNGNTNYAQKLQGRVTMTTDTSTSTAYMELRSLRSDDTAVYYCARDVAGITMIVEEVIDAFDIWGQGTMVTVSS
VL: SYELTQPSSVSVSPGQTARITCSGDVLAKKYARWFQQKPGQAPVLVIYKDSERPSGIPERFSGSSSGTTVTLTISGAQVEDEADYYCFSAPDNNRVFGGGTKLTVL
notes: as for B1
B3: V032 (antibody, V domains shown)
VH: QVQLVESGGGVVQPGRSLRLSCAASGFTFSSYGMHWVRQAPGKGLEWVAVISYDGSNKYYADSVKGRFTISRDNSKNTLYLQMNSLRAEDTAVYYCAKVSGPYCSSTSCYTGYWDYWGQGTLVTVSS
VL: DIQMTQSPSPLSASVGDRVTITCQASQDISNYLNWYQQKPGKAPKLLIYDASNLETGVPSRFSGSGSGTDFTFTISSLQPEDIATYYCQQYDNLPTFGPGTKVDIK
notes: IgG; donor BRA14; source: recombinant monoclonal IgG, produced and purified as previously described
B4: V044 (antibody, V domains shown)
VH: QVQLVQSGAEVKKPGASVKVSCKASGYTFTSYDINWVRQATGQGLEWMGWMNPNSGYAGYTQKFQGRITMTRNTSISTAYMELSSLRSEDTAVYFCARISSPTRLDPWGQGTLVTVSS
VL: NFMLTQPHSVSESPGKTVTISCSRSRGSIASSFVQWYQQRPGSSPTTVIYDDNQRPSGVPDRFSGSIDSSSNSASLTISGLKTEDEADYYCQSYDSISWVFGGGTKLTVL
notes: as for B1
B5: V050 (antibody, V domains shown)
VH: EVQLVESGGGLVKPGGSLRLSCAASGFSFSNAWMSWVRQAPGKGLEWVGRIKSKTDGGTTDYAAPVKGRFTISRDDSQNTLYLQMNSLKTEDTAVYYCITDRFRVHIRGYYGQGTLVTVSS
VL: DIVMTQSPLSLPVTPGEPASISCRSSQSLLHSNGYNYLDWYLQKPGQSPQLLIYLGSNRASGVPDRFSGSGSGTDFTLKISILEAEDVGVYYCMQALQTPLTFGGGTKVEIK
notes: as for B1
B6: V042 (antibody, V domains shown)
VH: QLQLQESGPGLVKPSETLSLTCTVSGGSISSSTNYWGWIRQPPGKGLEWIGSIDYSGSTYYNPSLKSRVTMSVDTSKNQFSLKLSSVTATDTAMYYCARHVIDDSRGYYPAALDHWSQGTLVTVSS
VL: EIVLTQSPATLSLSPGERATLSCRASQSVNNYLAWYQQKPGQAPRLLIYDASNRATGVPARFSGSGSGTDFTLTISSLEPEDFAVYFCQQRSNWPPMYTFGQGTKLEIK
notes: as for B1
B7: V061 (antibody, V domains shown)
VH: QVQLVQSGAEVKKPGTSVKVSCKASGYTFKNYGISWVRQAPGQGLEWMGWISAHNGNTNYAQRVQGRVTMTTDTSTSTAYMELRSLRSEDTAVYYCGRESGVASHPGDLDYWGQGTLVTVSS
VL: SYELTQPPSVSVSPGQTARITCSGDALPRQYAYWYQQKPGQAPVLLIYKDSERPSGIPERFSGSSSGTTVTLTISGVQAEDEADYYCQSADSSVVFGGGAKLTVL
notes: as for B1
B8: V007 (antibody, V domains shown)
VH: QVQLVQSGAEVKKPGSSVKVSCKASGDTFSTYTISWVRQAPGQGLEWMGRIIPILGVGNYAQKFQGRVTITADKSTSTAYMELSSLRSEDTAVYYCAHTTPPGDAFDIWGQGTMVTVSS
VL: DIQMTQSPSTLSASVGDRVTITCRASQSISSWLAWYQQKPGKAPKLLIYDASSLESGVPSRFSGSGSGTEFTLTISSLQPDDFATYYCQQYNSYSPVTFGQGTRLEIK
notes: IgG; donor BRA13; source: recombinant monoclonal IgG, produced and purified as previously described
B9: V051 (antibody, V domains shown)
VH: QVQLVESGGGVVQPGRSLRLSCEASGFTFSTYAMHWVRQAPGKGLEWVAVISYDGNNKYYADSVKGRLTVSRDNSKNTLYLQMNSLRAEDTAEYYCARDDGGYCSSLSCPMDVWGQGTTVTVSS
VL: SYELTQPPSVSVAPGKTARITCGGNSIGSKSVHWYQQRPGQAPVLVIYYDSDRPSGIPERFSGSNSGNTATLTISRVEAGDEADYYCQVWDSTLVFGGGTKLTVL
notes: as for B1
B10: V062 (antibody, V domains shown)
VH: QLQLQESGPGLVKPSETLSLTCTVSSGSISSSSYYWGWIRQPPGKGLEWIGSIYYSGSTYYNPSLKSRVTISVDTSKNQFSLKLSSVTAADTAVYYCARHWRENFAHAFDIWGQGTMVTVSS
VL: QSALTQPASVSGSPGQSITISCTGTSSDVGSYDLVSWFQQHPGKAPKLMIYEVTKRPSGVSNRFSGSKSGNTASLTISGLQAEDEADYYCCSYVGSSTYWVFGGGTKLTVL
notes: as for B1
B11: V033 (antibody, V domains shown)
VH: QVQLVQSGAEVKKPGASVKVSCKASGYTFTSYGISWVRQAPGQGLEWMGWISAYNGNTNYAQKLQGRVTMTTDTSTSTAYMELRSLRSDDTAVYYCARGRFCSSTSCYRAAPNYYYYYMDVWGKGTTVTVSS
VL: NFMLTQPHSVSESPGKTVTISCTRSSGSIASNYVQWYQQRPGSAPTTVIYEDNQRPSGVPDRFSGSIDSSSNSASLTISGLKTEDEADYYCQSYDSSNPYWVFGGGTKLTVL
notes: as for B3
B12: V039 (antibody, V domains shown)
VH: QVQLQESGPGLVKPSQTLSLTCTVSGGSISSGSYYWSWIRQPAGKGLEWIGRIYTSGSTNYNPSLKSRVTISVDTSKNQFSLKLSSVTAADTAVYYCARADYSDYDNYYFDYWGQGTLVTVSS
VL: B11 VL with T19A, Q35H, A44S, E51D, P99H, Y100N
notes: as for B1
B13: V045 (antibody, V domains shown)
VH: QVQLVQSGAEVKKPGASVKVSCKASTYTFTSYYIHWVRQAPGQGLEWMGIINPSGGSTSYAQNFQGRVTMTRDTSTSTVYMELSSLRSEDTAVYYCARGVLIPAAGGDFDYWGQGTLVTVSS
VL: QSALTQPRSVSGSPGQSVTISCTGTSSDVGGYKYVSWYQQHPGKAPKLMIYDVSKRPSGVPDRFSGSKSGNTASLTISGLQAEDEADYYCCSYAGSYSWVFGGGTKLTVL
notes: as for B1
B14: V057 (antibody, V domains shown)
VH: EVQLVESGGGLVQPGRSLRLSCAASGFTFGDYAMHWVRQAPGKGLEWVSGISWNSGIIGQADSVKGRFTISRDNAKNSLYLQMNSLRVEDTALYYCAKGGGESVEVPADEKLDYWGQGTLVTVSS
VL: QSVLTQPPSVSGAPGQRVTISCTGSSSNIGAGYDVHWYQQLPGTAPKLLIYGNNNRPSGVPDRFSGSKSGTSASLAITGLQAEDEADYYCQSYDSSLSGSWVFGGGTKLTVL
notes: as for B1
B15: V049 (antibody, V domains shown)
VH: QVQLVESGGGVVQPGRSLRLSCAASRFPFSNYGMHWVRQAPGKGLEWVAVISFDGNNKYYGDSVKGRLTISRDNSKNTLYLQVKSLRPEDTAVYYCAKDISTGLSLALFRSPDGEGMDVWGQGTTVTVSS
VL: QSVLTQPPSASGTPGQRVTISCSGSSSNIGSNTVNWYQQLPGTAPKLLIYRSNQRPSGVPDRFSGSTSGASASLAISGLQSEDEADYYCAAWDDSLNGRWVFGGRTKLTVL
notes: as for B1
B16: V004 (antibody, V domains shown)
VH: QVQLQESGPGLVKPSQTLSLTCTVSGGSISSGSYYWSWIRQPAGKGLEWIGRIYTSGSTNYNPSLKSRVTISVDTSKNQFSLKLSSVTAADTAVYYCARDTTDDYYVIWGQGTLVTVSS
VL: DIQMTQSPSTLSASVGDRVTITCRASQSIRSWLAWYQQKPGKAPKLLIYDASSLESGVPSRFSGSGSGTEFTLTISSLQPDDFATYYCQQYNTHFRTFGQGTKVEIK
notes: as for B8
B17: V063 (antibody, V domains shown)
VH: QVQLVESGGGVVQPGRSLRLSCAASGFPFSSFGMHWVRQAPGKGLEWVAVISSDGSNKYYADSVKGRFTISRDNSKNTLYLQMNSLRAEDTAVYYCAKEFTYVVVTAFWGTENFDIWGQGTMVTVSS
VL: B16 VL with R30S, K45N, D50K, S53A, T93S, H94Y, F95P, R96I, K103R, V104L
notes: as for B1
B18: V043 (antibody, V domains shown)
VH: QLQLQESGPGLVKPSETLSLTCTVSGGSISSNNYYWGWIRQPPGKGLECIGTIYYSGNTYYNPSLKSRVTISVDTSKNQFSLKLGSVTAADTAVYYCARQQWLRDAFHIWGQGTMVTVSS
VL: NFMLTQPHSVSESPGKTVTISCTGSSGSIASNYVQWYQQRPGSAPTIVIYEDNQRPSGVPDRFSGSIDSSSNSASLTISGLKTEDEADYYCQSYDSNIHVVFGGGTKLTVL
notes: as for B1
B19: V056 (antibody, V domains shown)
VH: QVQLVESGGGVVQPGRSLRLSCAASGFPFSNYGMHWVRQAPGKGLEWVAVISYDGSNKYYADSVKGRFTISRDNSKNTLYLQMNSLRAEDTALYYCAKDSRPLPAAMSTYYYYGVDVWGQGTTVTVSS
VL: not shown
notes: as for B1
B20: V060 (antibody, V domains shown)
VH: B19 VH with Q39R, S56L, S85R, L93V, L103V, A105G, V115M
VL: not shown
notes: as for B1
B21: V054 (antibody, V domains shown)
VH: B17 VH with F108L
VL: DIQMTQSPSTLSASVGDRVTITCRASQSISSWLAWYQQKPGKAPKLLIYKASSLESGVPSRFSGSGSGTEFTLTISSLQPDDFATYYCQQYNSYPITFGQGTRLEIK
notes: as for B1
B22: V055 (antibody, V domains shown)
VH: QVQLVQSGAEVKKPGSSVKVSCKASGGTFSSYIINWVRQAPGQGLEWMGRIIPILGIANYAQKFHGRVTITADESTSTAYMELSSLRSEDTAVYYCARGGPDPSDSNYAALLYYYYMDVWGKGTTVTVSS
VL: QSVLTQPPSVSAAPGQKVTISCSGSSSNIGSYYVSWYQKLPGTAPKLLIHENNKRPSGIPDRISGSKSGTSATLGITGLQTGDEADYYCGTWDSSLSDVVFGGGTKLTVL
notes: as for B1
B23: V037 (antibody, V domains shown)
VH: EVQLVESGGGLVQPGGSLRLSCAASEVIVSSNYMSWVRQAPGKGLEWVSVLYSGGSTFYADSVKGRFTISRDNSKNTLYLQMNSLRAEDTAVYYCARDLGPMGAFDIWGQGTMVTVSS
VL: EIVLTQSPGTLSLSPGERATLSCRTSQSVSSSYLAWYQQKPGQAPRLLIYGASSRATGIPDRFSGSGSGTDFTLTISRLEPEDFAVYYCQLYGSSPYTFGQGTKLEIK
notes: as for B1
B24: V038 (antibody, V domains shown)
VH: QVQLVQSGAEVKKPGASVKVSCKASGYTFTGYYVHWVRQAPGQGLEWMGWINPNSGGTNFAQRFQGRVTMTRDTSISTAYMELSRLRSDDTAVYYCARGITVYGVAPDAFDIWGQGTMVTVSS
VL: DIQMTQSPSSLSASVGDRVTITCQASQDISNYLNWYQQKPGKAPKVLIYDASNLEPGVPSRFSGSGSGTDFTFTISSLQPEDIATYYCQQYDNLITFGQGTRLEIK
notes: as for B1

Target: SARS-CoV-2 Wuhan-Hu-1 RBD (SARS-CoV-2 Wuhan-Hu-1, UniProt P0DTC2)
Test: BLI
Details: both partners purified

Binder	Kd
B1	0.698 nM
B2	5.02 nM
B3	8.3 nM
B4	5.25 nM
B5	56.9 nM
B6	32.5 nM
B7	13.3 nM
B8	3.59 nM
B9	14.5 nM
B10	2.86 nM
B11	4.68 nM
B12	1.09 nM
B13	2.95 nM
B14	16.9 nM
B15	12.8 nM
B16	3.59 nM
B17	4.16 nM
B18	4.46 nM
B19	14.3 nM
B20	20.6 nM
B21	17.8 nM
B22	0.981 nM
B23	6.9 nM
B24	5.73 nM
